According to patent publication US20210364527A1 (QUANTUM SI, published 2021):
Where two headings read alike, the source gives them in different places.

Experiments:
Assay in all cases: BLI heatmap
[1] = molecular target: T1, IA peptide IAKLDEESILKQK (XAKLDEESILKQK, X = I)
T1 construct: Immobilized on the biolayer interferometry sensor
T1 peptide: IAKLDEESILKQK

[2] = molecular target: T2, VA peptide VAKLDEESILKQK (XAKLDEESILKQK, X = V)
T2 construct: Immobilized on the biolayer interferometry sensor
T2 peptide: VAKLDEESILKQK

[3] = molecular target: T3, F peptide FAKLDEESILKQK (XAKLDEESILKQK, X = F)
T3 construct: Immobilized on the biolayer interferometry sensor
T3 peptide: FAKLDEESILKQK

[4] = molecular target: T4, LA peptide LAKLDEESILKQK (XAKLDEESILKQK, X = L)
T4 construct: Immobilized on the biolayer interferometry sensor
T4 peptide: LAKLDEESILKQK

[5] = molecular target: T1, IA peptide IAKLDEESILKQK …
[6] = molecular target: T3, F peptide FAKLDEESILKQK (XAKLDEESILKQK, …)

B1: PS419 (other)
chain: MEKEQSLCKEKTHVELSEPKHYKVVFHNDDFTTMDFVVKVLQLVFFKSQLQAEDLTMKIHLEGSATAGIYSYDIAQSKAQKTTQMAREEGFPLRLTVEPEDN
[1]
  binding result: no binding
[2]
  binding result: no binding
[3]
  binding result: binds

B2: PS408 (other)
chain: MTDPPSKGREDVDLATRTKPKTQRPPLYKVLLLNDDFTPMEFVVHILERLFGMTHAQAIEIMLTVHRKGVAVVGVFSHEIAETKVAQVMELARRQQHPLQCTMEKE
[1]
  binding result: no binding
[2]
  binding result: no binding
[3]
  binding result: binds

B3: PS407 (other)
chain: MPSNKRQMCLSDIKNSFNESGIVDWHISPRLANEPSEEGDSDLAVQTVPPELKRPPLYAVVLLNDDYTPMEFVIEILQQYFAMNLDQATQVMLTVHYEGKGVAGVYPRDIAETKANQVNNYARSQGHPLLCQIEPKD
[1]
  binding result: no binding
[2]
  binding result: no binding
[3]
  binding result: binds

B4: PS418 (other)
chain: MSDHNIDHDTSVAVHLDVVVREPPMYRVVLLNDDFTPMEFVVELLMHFFRKTAEQATQIMLNIHHEGVGVCGTYPREIAETKVAQVHQHARTNGHPLKCRMEPS
[1]
  binding result: no binding
[2]
  binding result: no binding
[3]
  binding result: binds

B5: PS409 (other)
chain: MPARLTDIEGEPNTDPVEDVLLADPELKKPQMYAVVMYNDDYTPMEFVVDVLQNHFKHTLDSAISIMLAIHQQGKGIAGIYPKDIAETKAQTVNRKARQAGYPLLSQIEPQG
[1]
  binding result: no binding
[2]
  binding result: no binding
[3]
  binding result: binds

B6: PS434 (other)
chain: MSRLPWKQEAKFAATVIIDFPDATLEAPTIEKKEATEQQIEMPWNVVVHNDPVNLMSYVTMVFQRVFGYPRERAEKHMLEVHHSGRSILWSGLRERAELYVQQLHGYLLLATIEKTV
[1]
  binding result: no binding
[2]
  binding result: no binding
[3]
  binding result: binds

B7: PS393 (other)
chain: MSDEDGEDGDENAVGIATRTRTRTKKPTPYRVLLLNDDYTPMEFVVLVLQRFFRMSIEDATRVMLQVHQKGVGVCGVFTYEVAETKVSQVIDFARQNQHPLQCTLEKA
[1]
  binding result: no binding
[2]
  binding result: no binding
[3]
  binding result: binds

B8: PS422 (other)
chain: MTQIKPQTIPDTDVISQTQSDWQMPDLYAVIMHNDDYTTMDFVVFLLNAVFDKPIEQAYQLMMQIHQTGRAVVAILPYEIAEMKVDEATSLAEQEQFPLFISIEQA
[1]
  binding result: no binding
[2]
  binding result: no binding
[3]
  binding result: binds

B9: PS550 (other)
chain: MPTFTEPEVVNDTRILPPYHVILLNDDDHTYEYVIHMLQTLFGHPQERGFQLAVEVDKKGKAIVFTTSKEHAEFKRDQIHAFGADPLSSKNCKGSMSAVIEPSF
[4]
  binding result: binds

B10: PS570 (other)
chain: MTGAGASQPSILEETEVRPRLSDGPWKVVLWDDDFHTYEYVIEMLMDVCQMPWEKAFQHAVEVDTRKKTIVFSGELEHAEFVHERILNYGPDPRMGSSKGSMTATLEQ
[4]
  binding result: binds
[5]
  binding result: binds
[6]
  binding result: no binding

B11: PS556 (other)
chain: MGDSNTSVAEPGEVTVVTTKPAPKKAKPKRQPKYHVVLWNDDDHTYEYVILMMHELFGHPVEKGFQIAKTVDADGRAICLTTTKEHAELKRDQIHAYGKDELIARCRGSMSSTIEPEC
[4]
  binding result: binds
[5]
  binding result: binds
[6]
  binding result: no binding

B12: PS546 (other)
chain: MSDTITLPGRPEVERDERTRRQPPYNVILHNDDDHTFEYVIVMLNQLFGYPPEKGYEMAKEVHLNGRVIVLTTSKEHAELKRDQIHAFGPDPFSSKDCKGSMSASIEPAY
[4]
  binding result: binds
[5]
  binding result: binds
[6]
  binding result: no binding

B13: PS575 (other)
chain: MASTQTPDLNEITEESTKSTGGPWRVVLWDDNEHTYEYVIEMLMEICTMTVEKAFLHAVQVDQEKRTVVFSGEFEHAEHVQERILTYGADPRMSNSKGSMSATLEK
[4]
  binding result: binds
[5]
  binding result: binds
[6]
  binding result: no binding

B14: PS548 (other)
chain: MSDTITLPEEKTDVRTKRQPPYHVILLNDDDHTYQYVIYMLQTLFGHPPETGFKMAQEVDKTGRVIVDTTSLERAELKRDQIHAFGPDPYIERCKGSMSAMIEPSE
[4]
  binding result: binds
[5]
  binding result: binds
[6]
  binding result: no binding

B15: PS433 (other)
chain: MMSSLKECSIQALPSLDEKTKTEEDLSVPWKVIVLNDPVNLMSYVVMVFRKVFGYNENKATKHMMEVHQLGKSVLWTGQREEAECYAYQLQRWRLQTILEKDD
[1]
  binding result: no binding
[2]
  binding result: no binding
[3]
  binding result: binds

B16: PS394 (other)
chain: MAERRDTGDDEGTGLGIATKTRSKTKKPTPYRVLMLNDDYTPMEFVVLCLQRFFRMNMEEATRVMLHVHQKGVGVCGVFSYEVAETKVGQVIDFARANQHPLQCTLEKA
[1]
  binding result: no binding
[2]
  binding result: no binding
[3]
  binding result: binds

B17: PS578 (other)
chain: MSGTVVESKPRNSTQLAPRWKVIVHDDPVTTFDFVLGVLRRVFAKPPGEARRITREAHDTGSALVDVLALEQAEFRRDQAHSLARAEGFPLTLTLEPAD
[4]
  binding result: binds
[6]
  binding result: binds

B18: PS425 (other)
chain: MTHYFSNILRDQESPKINPKELEQIDVLEEKEHQIILYNDDVNTFEHVIDCLVKICEHNYLQAEQCAYIVHHSGKCSVKTGSLDELVPKCNALLEEGLSAEVV
[1]
  binding result: no binding
[2]
  binding result: no binding
[3]
  binding result: binds

B19: PS395 (other)
chain: MTVSQSKTQGAPAAQSATELEYEGLWRVVVLNDPVNLMSYVVLVFKKVFGFDETTARKHMLEVHEQGRSVVWSGMREKAEAYAFTLQQWHLTTVLEQDEVR
[1]
  binding result: no binding
[2]
  binding result: no binding
[3]
  binding result: binds

B20: PS549 (other)
chain: MSESITTLPKKSRRLKEEEEQKTKRQPPYNVILLNDDDHTFEYVIFMLQKLFGHPPERGMQMAKEVHTTGRVIVMTTALELAELKRDQIHAFGPDPLIDRCKGSMSATIEPAPI
[4]
  binding result: binds
[5]
  binding result: binds
[6]
  binding result: no binding

B21: PS412 (other)
chain: MATKREGSTLLEPTAAKVKPPPLYKVLLLNDDYTPMEFVVLVLKKFFGIDQERATQIMLKVHTEGVGVCGVYPRDIAHTKVEQVVDFARQHQHPLQCTMEES
[1]
  binding result: no binding
[2]
  binding result: no binding
[3]
  binding result: binds
